Test results taken from the DeepSol protein solubility set.

Assay: soluble on expression in E. coli; label from the status in PepcDB or PDB records

With “MGHHHHHHSHMDNAEAQFTTALRLTNHQELWAFIVTNLASVYIREGNRHQEVLYSLLERINPDHSFPVSSHCLRAAAFYVRGLFSFFQGRYNEAKRFLRETLKMSNAEDLNRLTACSLVLLGHIFYVLGNHRESNNMVVPAMQLASKIPDMSVQLWSSALLRDLNKACGNAMDAHEAAQMHQNFSQQLLQDHIEACSLPEHNLITWTDGPPPVQFQAQNGPNTSLASLL” the “soluble on expression in E. coli” value was “not soluble”.

With “MGHHHHHHSHMASLAVSNWPKPMPLIPCLSWSTASGVFTTGVLSKPINWRELEKQYYTQTVYEEEIIHMLEYCGTDSFKMGQEFVKHFTSSADKLTNLNLVSRTLNLDISNQVVSQKPADCHNSSKTSVSATSEGLLLQDTSKMKRFNQTLSTNKSGYTSRNPQSYHLLSKEQSRNSLRKESLIFMKGVMDECTHVANFSVPVDPSLIIVVQAKEDAYIPRTGVRSLQEIWPGCEIRYLEGGHISAYLFKQGLFR” the “soluble on expression in E. coli” value was “soluble”.

With “MANSITADEIREQFSQAMSAMYQQEVPQYGTLLELVADVNLAVLENNPQLHEKMVNADELARLNVERHGAIRVGTAQELATLRRMFAIMGMYPVSYYDLSQAGVPVHSTAFRPIDDASLARNPFRVFTSLLRLELIENEILRQKAAEILRQRDIFTPRCRQLLEEYEQQGGFNETQAQEFVQEALETFRWHQSATVDEETYRALHNEHRLIADVVCFPGCHINHLTPRTLDIDRVQSMMPECGIEPKILIEGPPRREVPILLRQTSFKALEETVLFAGQKQGTHTARFGEIEQRGVALTPKGRQLYDDLLRNAGTGQDNLTHQMHLQETFRTFPDSEFLMRQQGLAWFRYRLTPSGEAHRQAIHPGDDPQPLIERGWVVAQPITYEDFLPVSAAGIFQSNLGNETQTRSHGNASREAFEQALGCPVLDEFQLYQEAEERSKRRCGLLLEHHHHHH” the “soluble on expression in E. coli” value was “soluble”.

With “MSIMDVQHVAQFYQQLDKSQLHRLIEIYHPDVVFEDAAHRIEGFDALYQYFLNLYQNVHTCTFTIHEQYAVNEGAFLVWTMHLRHPKLAKGEQVDVKGVSHLHFAEGKVTYHRDYFDMGEMLYEQLPVLGQVIRAIKRRLGQ” the “soluble on expression in E. coli” value was “not soluble”.

With “MPGIDKLPIEETLEDSPQTRSLLGVFEEDATAISNYMNQLYQAMHRIYDAQNELSAATHLTSKLLKEYEKQRFPLGGDDEVMSSTLQQFSKVIDELSSCHAVLSTQLADAMMFPITQFKERDLKEILTLKEVFQIASNDHDAAINRYSRLSKKRENDKVKYEVTEDVYTSRKKQHQTMMHYFCALNTLQYKKKIALLEPLLGYMQAQISFFKMGSENLNEQLEEFLANIGTSVQNVRREMDSDIETMQQTIEDLEVASDPLYVPDPDPTKFPVNRNLTRKAGYLNARNKTGLVSSTWDRQFYFTQGGNLMSQARGDVAGGLAMDIDNCSVMAVDCEDRRYCFQITSFDGKKSSILQAESKKDHEEWICTINNISKQIYLSENPEETAARVNQSALEAVTPSPSFQQRHESLRPAAGQSRPPTARTSSSGSLGSESTNLAALSLDSLVAPDTPIQFDIISPVCEDQPGQAKAFGQGGRRTNPFGESGGSTKSETEDSILHQLFIVRFLGSMEVKSDDHPDVVYETMRQILAARAIHNIFRMTESHLLVTCDCLKLIDPQTQVTRLTFPLPCVVLYATHQENKRLFGFVLRTSSGRSESNLSSVCYIFESNNEGEKICDSVGLAKQIALHAELDRRASEKQKEIERVKEKQQKELNKQKQIEKDLEEQSRLIAASSRPNQASSEGQFVVLSSSQSEESDLGEGGKKRESEA” the “soluble on expression in E. coli” value was “soluble”.

For “AELTCTDVSGLTAEEIQMRESLQYTDHSPYPDKTCANCQLYVPAESPDQCGGCQLIKGPIHPNGYCTSWVQKAT”, the “soluble on expression in E. coli” value was “soluble”.

For “MSRQPLSREDTAILVPALNEALRIREVVTDALTYCSHVIVIDDGSDDGTAECIAGMPVTLIRHPQRMGKGAALRSGFAQAQRLGMRAVMTMDGDGQHKAADFPRLLAAANRHPGCVIIGARMRKRATQPTIRRIGNDFGDWGIAWGCGFRLIDSQSGQRLYPASVFTLPNVPGEGFVFEAQLLISAARQAGARVVAVPIETRYAGTSPGTFRKSHFRLVRDLWNITSHVVKQVWAYGHVWREYRRVRANPVIVDDPDGEFATVPAVTKSNHSSLEHHHHHH”, the “soluble on expression in E. coli” value was “not soluble”.

With “MGSDKIHHHHHHKSTFKQELAVGASFGLNFSSVSFAPKVPTKMKLGFNGGATIRWNTEPNLGIQAELNFTQHGWEEKFEEKPQYKYSRTVNYMELPFLTHIHFGSKRVRVFVNLGPKIGYALSESTESNLNGENPNANRPDEQHTLEVQKKFDWGLCGGPGIELRTGIGSFLLEGRYYYALGDMFNSRKGDTFSKSSSQIISAKLTYLIPIFSK” the “soluble on expression in E. coli” value was “not soluble”.

In the case of “SMRYRQITIPRGKDGFGFTICCDSPVRVQAVDSGGPAERAGLQQLDTVLQLNERPVEHWKCVELAHEIRSCPSEIILLVWRMVPQVKPGPD”, the “soluble on expression in E. coli” value was “soluble”.

For “MPELSPLTYGHTDARLILRVGGSMGDVYGQRLLKRDLNGYILNEEGVGLAMENKETYLGSILPKMNMGWSLGFGYKGVNLGMTFTGRFGGIVISETQSVLDAAGVSKVSADVRDAGGVQINQSKVSAQTYYQTIQGTAAYYTYSATNVRLGELSLSYTLPKKWFDNKVGMTVGLVGKNLWMIYCKAPFDPELTTSAASNFYQGFDAYMLPSTRNFGFNVKFQF”, the “soluble on expression in E. coli” value was “not soluble”.

In the case of “GIDPFTHMATFISVQLKKTSEVDLAKPLVKFIQQTYPSGGEEQAQYCRAAEELSKLRRAAVGRPLDKHEGALETLLRYYDQICSIEPKFPFSENQICLTFTWKDAFDKGSLFGGSVKLALASLGYEKSCVLFNCAALASQIAAEQNLDNDEGLKIAAKHYQFASGAFLHIKETVLSALSREPTVDISPDTVGTLSLIMLAQAQEVFFLKATRDKMKDAIIAKLANQAADYFGDAFKQCQYKDTLPKEVFPVLAAKHCIMQANAEYHQSILAKQQYYFGEEIARLQHAAELIKTVASRYDEYVNVKDFSDKINRALAAAKKDNDFIYHDRVPDLKDLDPIGKATLVKSTPVNVPISQKFTDLFEKMVPVSVQQSLAAYNQRKADLVNRSIAQMREATTLANGVLASLNLPAAIEDVSGDTVPQSILTKSRSVIEQGGIQTVDQLIKELPELLQRNREILDESLRLLDEEEATDNDLRAKFKERWQRTPSNELYKPLRAEGTNFRTVLDKAVQADGQVKECYQSHRDTIVLLCKPEPELNAAIPSANPAKTMQGSEVVNVLKSLLSNLDEVKKEREGLENDLKSVNFDMTSKFLTALAQDGVINEEALSVTELDRVYGGLTTKVQESLKKQEGLLKNIQVSHQEFSKMKQSNNEANLREEVLKNLATAYDNFVELVANLKEGTKFYNELTEILVRFQNKCSDIVFAR”, the “soluble on expression in E. coli” value was “soluble”.

In the case of “MGSDKIHHHHHHMARDLQNHLLFEVATEVTNRVGGIYSVLKSKAPVTVAQYGDNYTLLGPLNKATYESEVEKLDWEDESIFPEELLPIQKTLMSMREKGVNFVYGNWLIEGAPRVILFELDSVRHFLNEWKADLWSLVGIPSPEHDHETNDAILLGYVVVWFLGEVSKLDSSHAIIGHFHEWLAGVALPLCRKKRIDVVTIFTTHATLLGRYLCAAGDVDFYNNLQYFDVDQEAGKRGIYHRYCIERAAAHTADVFTTVSQITALEAEHLLKRKPDGILPNGLNVVKFQAVHEFQNLHALKKDKINDFVRGHFHGCFDFDLDNTVYFFIAGRYEYKNKGADMFIESLARLNYRLKVSGSKKTVVAFLIMPAKTNSFTVEALKSQAIVKSLENTVNEVTASIGKRIFEHTMRYPHNGLESELPTNLDELLKSSEKVLLKKRVLALRRPYGELPPVVTHNMCDDANDPILNQIRHVRLFNDSSDRVKVIFHPEFLNANNPILGLDYDEFVRGCHLGVFPSYYEPWGYTPAECTVMGVPSITTNVSGFGAYMEDLIETDQAKDYGIYIVDRRFKSPDESVEQLADYMEEFVNKTRRQRINQRNRTERLSDLLDWKRMGLEYVKARQLGLRRAYPEQFKQLVGETISDANMNTLAGGKKFKIARPLSVPGSPKVRSNSTVYMTPGDLGTLQDANNADDYFNLSTNGAIDNDDDDNDTSAYYEDN”, the “soluble on expression in E. coli” value was “not soluble”.

With “MGSDKIHHHHHHVEPRSLRSRRSSSYYCGELIKADFSQRREFVMRNSLRRWKNEKLAQKLKKVFESKSVRVIYLPDIEMVVEEVHKLIPDGATVSSGGSVTLQETGVMDLLRSGKYEFLDRDSVSEDKERRKIMIKAFESDYYLCSANAITENGEILLLDGSGNRAAAVTFGPEKVIFVAGINKVVEDLDAGIKRIKSIAPMNAKRLNLHTPCATTGFCSDCSSEERICEMYSIIIDSRRRPWRYTIVLIGEELGL” the “soluble on expression in E. coli” value was “not soluble”.

With “MIRSFADRDTELVWLREGAKRVDPRIHKVANRKLHLLDAATTLDALRVTPGNRLETLEGDRVGQYSIRVNDQWRICFRWNDSGPENVEIVDYH” the “soluble on expression in E. coli” value was “not soluble”.

In the case of “GPGSMARITVELLRRRAEHNEGCLSNLKEIALHQQDIEKIDLIGDACRQLEIIYLCNNYISRIEGLRHLKWLKYLNLAVNNITVIDGLQGCEALERLDLTLNFIAEPTSVQTLLANPFLESLHLTGNPCTKTEGYRAYVIHSLPQLKELDGDEIIRAERITARQAEDVVIEVAEEEAVRVREAERIKQEMLAKGIDPFPPKYNDKGERVYGHTPEERLQILHEQQEMERKKREEQSTPQPGSIAALHQELKRQQQPSQRLTAEEERSKFGRLLLRNEPRVPFHMNQDDAAEFVLTVDPGKFISTTLLSVQVEVDVVRVFIKGKLLQVPVEDELAADAAQVQRSTTTGQLKVMVPYAPEVQERRGGARARLRGLREVTEKASSATGTSAASTTPPPTASPPKVAEPPTRSTLLEIEGRMRGSSSPSLSINQPGTTGTLSSSGKNTTTASSGIVKSVKDISPVPSTMKVSADAATLASQSMTAVLTPTTAASSH”, the “soluble on expression in E. coli” value was “soluble”.

For “MKTLNNTHIGQIYYIHKIIGKNQAKLRDLGMISDKKITLISTDGENAIVKIDETRLALSSEFLEQIFVKEERSSEDIIGLAHLQVGQTGVVRMIDATSDIRRRLMDMGITRGTSVHLQKLAPLGDPLELRLRGYSLSLRKTDAEKIKVVLERLEHHHHHH”, the “soluble on expression in E. coli” value was “soluble”.

For “MEQKHNGIIFTAIPNESNEYYQPFYEDLIYFNECLNEKKSIADQLISLSVEEQDFHTSCFEYDDIWLRDVAPVVTNHLVKFKYRPNYLPDDQGRYLDQQFNKWLKKNDFEYVKSPLILDGGNLIWNKKDTVILTERIFDDNDDWTEEEIIEQLEWDLDVSRVIIIPAEEGDVLAHADGMVKFIDEHTMFISDFLGDHEFRYSVEEIIQEQMPEAEFIVVPSSYTEKGQYDQEIASAKGLYINMLESCDALYVPKFGLAKDEEVLRYIQQYTEKQVIQIHVGEISTMGGAMNCLTWYCPSHLLPSKMRRLKNQNEDFSMKKIFDWFLEHHHHHH”, the “soluble on expression in E. coli” value was “soluble”.

In the case of “MVSSKLATPLSIQGEVIYPDDSGFDAIANIWDGRHLQRPSLIARCLSAGDVAKSVRYACDNGLEISVRSGGHNPNGYATNDGGIVLDLRLMNSIHIDTAGSRARIGGGVISGDLVKEAAKFGLAAVTGMHPKVGFCGLALNGGVGFLTPKYGLASDNILGATLVTATGDVIYCSDDERPELFWAVRGAGPNFGVVTEVEVQLYELPRKMLAGFITWAPSVSELAGLLTSLLDALNEMADHIYPSVFVGVDENRAPSVTVCVGHLGGLDIAERDIARLRGLGRTVSDSIAVRSYDEVVALNAEVGSFEDGMSNLWIDREIAMPNARFAEAIAGNLDKFVSEPASGGSVKLEIEGMPFGNPKRTPARHRDAMGVLALAEWSGAAPGSEKYPELARELDAALLRAGVTTSGFGLLNNNSEVTAEMVAEVYKPEVYSRLAAVKREYDPENRFRHNYNIDPEGS”, the “soluble on expression in E. coli” value was “soluble”.

For “MGSDKIHHHHHHMSKRLLLFDFDETYFKHNTNEEDLSHLREMEKLLEKLTNNNEVITAVLTGSTFQSVMDKMDQVNMTFKPLHIFSDLSSKMFTWNNGEYVESETYKKKVLSEPFLFEDIEDILRHISAQYNVEFIPQRAFEGNETHYNFYFHSTGNHNNDSRILEALVRYANDQNYTARFSRSNPLAGDPENAYDIDFTPSNAGKLYATQFLMKKYNIPVKSILGFGDSGNDEAYLSYLEHAYLMSNSRDEALKQKFRLTKYPYYQGITLHVKEFVEGKYDY”, the “soluble on expression in E. coli” value was “not soluble”.
